In patent US20220195407, “OPTIMIZATION OF ENGINEERED MEGANUCLEASES FOR RECOGNITION SEQUENCES” (Precision BioSciences, Inc., published 2022):

Assays:
Assay in all cases: cell_activity; CHO iGFFP reporter
LOX 3-4m.869 = molecular target: T1, LOX 3-4m.869 (artificial (I-CreI derived))
T1 chain: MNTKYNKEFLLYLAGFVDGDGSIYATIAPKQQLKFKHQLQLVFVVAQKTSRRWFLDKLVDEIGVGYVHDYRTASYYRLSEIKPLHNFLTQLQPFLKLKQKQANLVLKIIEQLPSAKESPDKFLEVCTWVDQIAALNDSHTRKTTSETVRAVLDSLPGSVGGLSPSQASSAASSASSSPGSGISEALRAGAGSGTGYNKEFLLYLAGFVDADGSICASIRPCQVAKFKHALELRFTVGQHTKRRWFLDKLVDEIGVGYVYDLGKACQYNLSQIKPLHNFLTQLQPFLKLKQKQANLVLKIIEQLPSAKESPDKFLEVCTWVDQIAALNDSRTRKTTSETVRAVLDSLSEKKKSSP
Text: (§1) A CHO cell reporter system (see WO/2012/167192, FIG. 3) was used to determine whether the engineered meganucleases generated in these studies could recognize and cleave the modified LOX 3-4 recognition sequences in Table 87. To perform the assay, a pair of CHO cell reporter lines were produced, which carried a non-functional Green Fluorescent Protein (GFP) gene expression cassette integrated into the genome of the cell. The GFP gene in each cell line was interrupted by a pair of recognition sequences such that intracellular cleavage of either recognition sequence by a meganuclease would stimulate a homologous recombination event resulting in a functional GFP gene. In both cell lines, one of the recognition sequences was derived from the LOX 3-4 recognition sequence (i.e., those sequences disclosed in Table 87), and the second recognition sequence was specifically recognized by a control meganuclease called “CHO 23/24.” CHO reporter cells comprising a recognition sequence derived from the LOX 3-4 recognition sequence and the CHO 23/24 recognition sequence are referred to herein as “test cells.”
(§2) Novel engineered meganucleases derived from the LOX 3-4x.109 meganuclease were prepared by making amino acid substitutions at one or more positions in the first subunit and one or more positions in the second subunit. These engineered meganucleases were then evaluated for cleavage of the LOX 3-4 recognition sequence, which normally comprises an ACAT center sequence (SEQ ID NO: 44) in the CHO reporter assay according to Example 1.

LOX 3-4m.949 = molecular target: T2, LOX 3-4m.949 (artificial (I-CreI derived))
T2 chain: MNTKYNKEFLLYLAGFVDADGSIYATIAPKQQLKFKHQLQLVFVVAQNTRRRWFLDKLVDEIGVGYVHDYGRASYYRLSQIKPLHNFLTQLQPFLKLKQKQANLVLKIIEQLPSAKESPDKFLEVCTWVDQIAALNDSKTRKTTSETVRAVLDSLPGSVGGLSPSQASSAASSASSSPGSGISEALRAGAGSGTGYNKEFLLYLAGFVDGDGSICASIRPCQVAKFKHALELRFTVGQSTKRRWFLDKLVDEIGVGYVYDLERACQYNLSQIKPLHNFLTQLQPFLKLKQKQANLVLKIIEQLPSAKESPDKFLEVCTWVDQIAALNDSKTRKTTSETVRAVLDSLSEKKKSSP
Text: as §1, §2

LOX 3-4m.925 = molecular target: T3, LOX 3-4m.925 (artificial (I-CreI derived))
T3 chain: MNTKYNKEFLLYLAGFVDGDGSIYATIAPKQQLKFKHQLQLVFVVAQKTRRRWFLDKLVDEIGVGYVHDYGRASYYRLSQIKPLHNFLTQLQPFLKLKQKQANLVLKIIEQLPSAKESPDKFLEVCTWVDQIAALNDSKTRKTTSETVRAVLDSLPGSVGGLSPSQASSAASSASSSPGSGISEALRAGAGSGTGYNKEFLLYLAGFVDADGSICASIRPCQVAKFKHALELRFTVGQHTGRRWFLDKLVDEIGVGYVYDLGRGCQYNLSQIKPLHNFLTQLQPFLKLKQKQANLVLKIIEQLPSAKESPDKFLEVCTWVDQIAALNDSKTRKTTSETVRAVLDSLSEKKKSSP
Text: as §1, §2

LOX 3-4m.893 = molecular target: T4, LOX 3-4m.893 (artificial (I-CreI derived))
T4 chain: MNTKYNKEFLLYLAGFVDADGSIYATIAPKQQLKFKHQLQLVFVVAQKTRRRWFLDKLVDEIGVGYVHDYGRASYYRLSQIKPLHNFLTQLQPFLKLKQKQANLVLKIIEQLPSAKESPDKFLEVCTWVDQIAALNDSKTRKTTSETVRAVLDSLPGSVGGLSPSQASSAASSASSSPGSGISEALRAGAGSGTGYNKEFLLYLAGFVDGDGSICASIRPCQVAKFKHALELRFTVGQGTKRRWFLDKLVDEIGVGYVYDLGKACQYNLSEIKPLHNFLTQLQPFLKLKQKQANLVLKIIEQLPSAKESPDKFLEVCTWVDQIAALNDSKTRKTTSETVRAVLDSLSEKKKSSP
Text: as §1, §2

LOX 3-4m.524 = molecular target: T5, LOX 3-4m.524 (artificial (I-CreI derived))
T5 chain: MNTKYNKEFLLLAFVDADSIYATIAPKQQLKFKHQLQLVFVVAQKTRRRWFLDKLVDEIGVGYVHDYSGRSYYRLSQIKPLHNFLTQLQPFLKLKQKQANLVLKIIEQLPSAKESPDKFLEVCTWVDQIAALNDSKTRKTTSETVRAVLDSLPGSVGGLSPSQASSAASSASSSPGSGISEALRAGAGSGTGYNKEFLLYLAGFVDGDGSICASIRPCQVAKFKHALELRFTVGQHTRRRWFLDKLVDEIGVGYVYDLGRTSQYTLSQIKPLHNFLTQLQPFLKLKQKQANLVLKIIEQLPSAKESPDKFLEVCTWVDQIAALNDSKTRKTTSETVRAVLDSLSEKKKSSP
Text: as §1
(§3) Novel engineered meganucleases derived from the LOX 3-4x.109 meganuclease were prepared by making amino acid substitutions at one or more positions in the first subunit and one or more positions in the second subunit. The N-terminal subunit recognizes the reverse complement of the AG portion of the four base pair center sequence, which is CT, and the C-terminal subunit recognizes the GC portion of the […] center sequence. These engineered meganucleases were then evaluated for cleavage of the LOX 3-4 recognition sequence modified to have a GCAG center sequence (SEQ ID NO: 326) in the CHO reporter assay according to Example 1. The substitutions in each subunit are provided in Tables 180 and 181, respectively.

LOX 3-4m.509 = molecular target: T6, LOX 3-4m.509 (artificial (I-CreI derived))
T6 chain: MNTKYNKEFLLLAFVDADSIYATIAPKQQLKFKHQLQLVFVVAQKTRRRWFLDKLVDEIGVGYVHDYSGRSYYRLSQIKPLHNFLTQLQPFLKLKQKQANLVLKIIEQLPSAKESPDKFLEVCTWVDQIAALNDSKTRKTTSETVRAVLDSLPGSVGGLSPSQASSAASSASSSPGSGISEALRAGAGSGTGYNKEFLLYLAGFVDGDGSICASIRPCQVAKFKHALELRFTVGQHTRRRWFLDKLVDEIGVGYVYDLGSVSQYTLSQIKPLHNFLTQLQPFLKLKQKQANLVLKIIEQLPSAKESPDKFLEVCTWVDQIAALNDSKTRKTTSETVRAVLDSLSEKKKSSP
Text: as §1, §3

LOX 3-4m.494 = molecular target: T7, LOX 3-4m.494 (artificial (I-CreI derived))
T7 chain: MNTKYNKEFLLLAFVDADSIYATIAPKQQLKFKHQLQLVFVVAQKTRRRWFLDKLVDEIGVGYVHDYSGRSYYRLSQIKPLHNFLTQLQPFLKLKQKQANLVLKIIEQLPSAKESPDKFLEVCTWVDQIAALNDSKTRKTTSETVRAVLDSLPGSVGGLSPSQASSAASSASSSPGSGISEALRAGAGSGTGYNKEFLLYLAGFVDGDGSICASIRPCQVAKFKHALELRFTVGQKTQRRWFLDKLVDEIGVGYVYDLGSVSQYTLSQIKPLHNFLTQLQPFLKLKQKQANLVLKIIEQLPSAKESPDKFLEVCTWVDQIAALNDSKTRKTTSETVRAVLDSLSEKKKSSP
Text: as §1, §3

LOX 3-4m.1036 = molecular target: T8, LOX 3-4m.1036 (artificial (I-CreI derived))
T8 chain: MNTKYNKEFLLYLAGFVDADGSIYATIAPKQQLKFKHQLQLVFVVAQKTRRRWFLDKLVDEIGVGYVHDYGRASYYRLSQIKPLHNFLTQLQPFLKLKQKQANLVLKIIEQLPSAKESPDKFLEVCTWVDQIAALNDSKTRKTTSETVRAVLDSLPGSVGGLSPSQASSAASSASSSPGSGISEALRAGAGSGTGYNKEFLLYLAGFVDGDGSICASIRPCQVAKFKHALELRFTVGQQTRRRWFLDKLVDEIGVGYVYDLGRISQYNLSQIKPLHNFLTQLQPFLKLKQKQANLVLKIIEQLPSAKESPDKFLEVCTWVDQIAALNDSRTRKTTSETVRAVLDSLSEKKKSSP
Text: as §1
as §2, with “sequence modified to have” for “sequence, which normally comprises”, “ACGA” for “ACAT”, “68)” for “44)”

LOX 3-4m.1013 = molecular target: T9, LOX 3-4m.1013 (artificial (I-CreI derived))
T9 chain: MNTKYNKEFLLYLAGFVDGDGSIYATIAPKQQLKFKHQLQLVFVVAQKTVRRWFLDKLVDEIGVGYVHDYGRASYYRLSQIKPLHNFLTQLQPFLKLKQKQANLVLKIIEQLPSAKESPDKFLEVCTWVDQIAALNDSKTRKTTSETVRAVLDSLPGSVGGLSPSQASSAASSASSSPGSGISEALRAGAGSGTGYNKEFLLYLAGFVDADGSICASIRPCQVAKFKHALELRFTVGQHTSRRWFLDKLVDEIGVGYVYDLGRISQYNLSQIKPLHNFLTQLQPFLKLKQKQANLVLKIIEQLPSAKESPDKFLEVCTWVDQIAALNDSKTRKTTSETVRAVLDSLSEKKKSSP
Text: as §1
as §2, with “sequence modified to have” for “sequence, which normally comprises”, “ACGA” for “ACAT”, “68)” for “44)”

LOX 3-4m.1044 = molecular target: T10, LOX 3-4m.1044 (artificial (I-CreI derived))
T10 chain: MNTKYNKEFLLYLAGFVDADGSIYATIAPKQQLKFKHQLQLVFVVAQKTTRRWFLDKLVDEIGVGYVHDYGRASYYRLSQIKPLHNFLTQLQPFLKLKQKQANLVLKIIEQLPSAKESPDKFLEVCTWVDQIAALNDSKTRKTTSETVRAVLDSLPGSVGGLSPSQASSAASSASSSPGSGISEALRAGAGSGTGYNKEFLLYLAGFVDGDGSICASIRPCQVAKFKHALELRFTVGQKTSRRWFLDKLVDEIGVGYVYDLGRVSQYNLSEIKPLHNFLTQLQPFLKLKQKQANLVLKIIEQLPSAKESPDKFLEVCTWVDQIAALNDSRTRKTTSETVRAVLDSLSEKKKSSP
Text: as §1
as §2, with “sequence modified to have” for “sequence, which normally comprises”, “ACGA” for “ACAT”, “68)” for “44)”

LOX 3-4m.956 = molecular target: T11, LOX 3-4m.956 (artificial (I-CreI derived))
T11 chain: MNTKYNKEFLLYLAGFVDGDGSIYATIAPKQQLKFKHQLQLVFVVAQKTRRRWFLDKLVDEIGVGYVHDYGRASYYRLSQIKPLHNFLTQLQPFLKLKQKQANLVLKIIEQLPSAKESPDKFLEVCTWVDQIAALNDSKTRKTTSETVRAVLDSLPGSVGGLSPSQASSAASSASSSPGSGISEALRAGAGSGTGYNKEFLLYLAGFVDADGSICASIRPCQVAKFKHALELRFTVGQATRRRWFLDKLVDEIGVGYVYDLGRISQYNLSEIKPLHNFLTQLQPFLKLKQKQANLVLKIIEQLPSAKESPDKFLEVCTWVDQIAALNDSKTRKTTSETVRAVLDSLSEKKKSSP
Text: as §1
as §2, with “sequence modified to have” for “sequence, which normally comprises”, “ACGA” for “ACAT”, “68)” for “44)”

B1: LOX 3-4 ACAT (native LOX 3-4 site, SEQ 6) (dsDNA)
DNA 1: GTATAGCATACATTATACGAAG
DNA 2: CTTCGTATAATGTATGCTATAC
activity (LOX 3-4m.869): 11.2 % GFP | activity (LOX 3-4m.949): 12.5 % GFP | activity (LOX 3-4m.925): 12.2 % GFP | activity (LOX 3-4m.893): 13.1 % GFP

B2: LOX 3-4 GCAG (dsDNA)
DNA 1: GTATAGCATGCAGTATACGAAG
DNA 2: CTTCGTATACTGCATGCTATAC
activity (LOX 3-4m.524): 16.6 % GFP | activity (LOX 3-4m.509): 13.4 % GFP | activity (LOX 3-4m.494): 13.8 % GFP

B3: LOX 3-4 ACGA (dsDNA)
DNA 1: GTATAGCATACGATATACGAAG
DNA 2: CTTCGTATATCGTATGCTATAC
activity (LOX 3-4m.1036): 5 % GFP | activity (LOX 3-4m.1013): 1.7 % GFP | activity (LOX 3-4m.1044): 5.8 % GFP | activity (LOX 3-4m.956): 4.7 % GFP
